Among the data in US20100260668A1 (published 2010) are EC50 values, retold here.

The target in test [1] is T1, VEGF (VEGF 1-165 aa, R&D Systems 293-VE-010) (UniProt P15692 27-191).
T1 construct: bought reagent; also called vascular endothelial growth factor
As to the kind of experiment: Direct bind ELISA, VEGF coated on plate; VEGF domain C-term., HC short/LC short. On the technique in general: An ELISA detects its analyte on a solid surface through an enzyme-linked reagent.

Test [2] deals with T1, VEGF (VEGF 1-165 aa, R&D Systems …). The test can be described thus: Direct bind ELISA, VEGF coated on plate; VEGF domain C-term., HC long/LC short.
Test [3] shares this target. The test can be described thus: Direct bind ELISA, VEGF coated on plate; VEGF domain N-term., HC short/LC short.
Test [4] has the same target. As to the kind of experiment: Direct bind ELISA, VEGF coated on plate; VEGF domain N-term., HC long/LC short.
The target is the same in test [5]. The test can be described thus: Direct bind ELISA, VEGF coated on plate; VEGF domain C-term., HC long/LC long.

The EC50 is the concentration at which the effect is half-maximal. Low readings indicate greater potency, high ones weaker potency.

T1 sequence (P15692 other isoform, or with tags, fused parts or gaps limits assumed): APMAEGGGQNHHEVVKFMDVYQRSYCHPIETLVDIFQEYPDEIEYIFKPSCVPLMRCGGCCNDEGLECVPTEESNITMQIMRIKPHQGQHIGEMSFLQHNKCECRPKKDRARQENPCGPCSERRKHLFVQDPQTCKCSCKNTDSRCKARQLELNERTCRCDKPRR

B1: DVD491 (bispecific antibody, human IgG1, kappa)
heavy: not shown
light: DIQMTQSSSYLSVSLGGRVTITCKASDHINNWLAWYQQKPGNAPRLLISGATSLETGVPSRFSGSGSGKDYTLSITSLQTEDVATYYCQQYWSIPLTFGAGTKLELKRTVAAPDIQMTQSPSSLSASVGDRVTITCRASQVIRRSLAWYQQKPGKAPKLLIYAASNLASGVPSRFSGSGSGTDFTLTISSLQPEDFATYYCQQSNTSPLTFGQGTKVEIKRTVAAPSVFIFPPSDEQLKSGTASVVCLLNNFYPREAKVQWKVDNALQSGNSQESVTEQDSKDSTYSLSSTLTLSKADYEKHKVYACEVTHQGLSSPVTKSFNRGEC
notes: DVD-Ig; N-term; AB072 (DLL4), C-term; AB071 (VEGF); HC linker short, LC linker short; also called DVD-Ig DVD491; DVD491H/DVD491L
As for B1, the half-maximal effective concentration (EC50) in test [1] amounted to 1250 nM.

B2: DVD503 (bispecific antibody, human IgG1, kappa)
heavy: not shown
light: B1 light
notes: DVD-Ig; N-term; AB072 (DLL4), C-term; AB071 (VEGF); HC linker long, LC linker short; also called DVD-Ig DVD503; DVD503H/DVD503L
Turning to B2, the EC50 in test [2] amounted to 430 nM.

B3: DVD490 (bispecific antibody, human IgG1, kappa)
heavy: not shown
light: DIQMTQSPSSLSASVGDRVTITCRASQDVSTAVAWYQQKPGKAPKLLIYSASFLYSGVPSRFSGSGSGTDFTLTISSLQPEDFATYYCQQSYTTPPTFGQGTKVEIKRTVAAPDIQMTQSSSYLSVSLGGRVTITCKASDHINNWLAWYQQKPGNAPRLLISGATSLETGVPSRFSGSGSGKDYTLSITSLQTEDVATYYCQQYWSIPLTFGAGTKLELKRTVAAPSVFIFPPSDEQLKSGTASVVCLLNNFYPREAKVQWKVDNALQSGNSQESVTEQDSKDSTYSLSSTLTLSKADYEKHKVYACEVTHQGLSSPVTKSFNRGEC
notes: DVD-Ig; N-term; AB070 (VEGF), C-term; AB072 (DLL4); HC linker short, LC linker short; also called DVD-Ig DVD490; DVD490H/DVD490L
For the molecule B3, the EC50 in test [3] came to 6.7 nM.

B4: DVD502 (bispecific antibody, human IgG1, kappa)
heavy: not shown
light: B3 light
notes: DVD-Ig; N-term; AB070 (VEGF), C-term; AB072 (DLL4); HC linker long, LC linker short; also called DVD-Ig DVD502; DVD502H/DVD502L
Molecule B4 returned a concentration giving a half-maximal response (EC50) in test [4] of 3.25 nM.

B5: DVD492 (bispecific antibody, human IgG1, kappa)
heavy: not shown
light: DIQMTQSPSSLSASVGDRVTITCRASQVIRRSLAWYQQKPGKAPKLLIYAASNLASGVPSRFSGSGSGTDFTLTISSLQPEDFATYYCQQSNTSPLTFGQGTKVEIKRTVAAPDIQMTQSSSYLSVSLGGRVTITCKASDHINNWLAWYQQKPGNAPRLLISGATSLETGVPSRFSGSGSGKDYTLSITSLQTEDVATYYCQQYWSIPLTFGAGTKLELKRTVAAPSVFIFPPSDEQLKSGTASVVCLLNNFYPREAKVQWKVDNALQSGNSQESVTEQDSKDSTYSLSSTLTLSKADYEKHKVYACEVTHQGLSSPVTKSFNRGEC
notes: DVD-Ig; N-term; AB071 (VEGF), C-term; AB072 (DLL4); HC linker short, LC linker short; also called DVD-Ig DVD492; DVD492H/DVD492L
B5: in test [3], it took 8.42 nM to reach a half-maximal effect (EC50).

B6: DVD504 (bispecific antibody, human IgG1, kappa)
heavy: not shown
light: B5 light
notes: DVD-Ig; N-term; AB071 (VEGF), C-term; AB072 (DLL4); HC linker long, LC linker short; also called DVD-Ig DVD504; DVD504H/DVD504L
In the case of B6, the half-maximal effective concentration (EC50) in test [4] turned out to be 16.7 nM.

B7: DVD525 (bispecific antibody, human IgG1, kappa)
heavy: not shown
light: QAVVTQESALTTSPGETVTLTCRSSTGAVTTSNYANWVQEKPDHLFTGLIGGTNNRAPGVPARFSGSLIGDKAALTITGAQTEDEAIYFCALWYSNHWVFGGGTKLTVLGQPKAAPDIQMTQSPSSLSASVGDRVTITCRASQDVSTAVAWYQQKPGKAPKLLIYSASFLYSGVPSRFSGSGSGTDFTLTISSLQPEDFATYYCQQSYTTPPTFGQGTKVEIKRTVAAPSVFIFPPSDEQLKSGTASVVCLLNNFYPREAKVQWKVDNALQSGNSQESVTEQDSKDSTYSLSSTLTLSKADYEKHKVYACEVTHQGLSSPVTKSFNRGEC
notes: DVD-Ig; N-term; AB073 (DLL4), C-term; AB070 (VEGF); HC linker long, LC linker short; also called DVD-Ig DVD525; DVD525H/DVD525L
As to B7, the EC50 in test [2] is 21.8 nM.

B8: DVD495 (bispecific antibody, human IgG1, kappa)
heavy: not shown
light: DIQMTQSSSYLSVSLGGRVTITCKASDHINNWLAWYQQKPGNAPRLLISGATSLETGVPSRFSGSGSGKDYTLSITSLQTEDVATYYCQQYWSIPLTFGAGTKLELKRTVAAPSVFIFPPDIQMTQSPSSLSASVGDRVTITCRASQDVSTAVAWYQQKPGKAPKLLIYSASFLYSGVPSRFSGSGSGTDFTLTISSLQPEDFATYYCQQSYTTPPTFGQGTKVEIKRTVAAPSVFIFPPSDEQLKSGTASVVCLLNNFYPREAKVQWKVDNALQSGNSQESVTEQDSKDSTYSLSSTLTLSKADYEKHKVYACEVTHQGLSSPVTKSFNRGEC
notes: DVD-Ig; N-term; AB072 (DLL4), C-term; AB070 (VEGF); HC linker long, LC linker long; also called DVD-Ig DVD495; DVD495H/DVD495L
For the molecule B8, the midpoint of the response in test [5], the EC50, lay at 70 nM. This counts as double-digit nanomolar.

B9: DVD519 (bispecific antibody, human IgG1, kappa, lambda)
heavy: not shown
light: QAVVTQESALTTSPGETVTLTCRSSTGAVTTSNYANWVQEKPDHLFTGLIGGTNNRAPGVPARFSGSLIGDKAALTITGAQTEDEAIYFCALWYSNHWVFGGGTKLTVLGQPKAAPSVTLFPPDIQMTQSPSSLSASVGDRVTITCRASQDVSTAVAWYQQKPGKAPKLLIYSASFLYSGVPSRFSGSGSGTDFTLTISSLQPEDFATYYCQQSYTTPPTFGQGTKVEIKRTVAAPSVFIFPPSDEQLKSGTASVVCLLNNFYPREAKVQWKVDNALQSGNSQESVTEQDSKDSTYSLSSTLTLSKADYEKHKVYACEVTHQGLSSPVTKSFNRGEC
notes: DVD-Ig; N-term; AB073 (DLL4), C-term; AB070 (VEGF); HC linker long, LC linker long; also called DVD-Ig DVD519; DVD519H/DVD519L
Consider B9, for which it took 77.2 nM to reach a half-maximal effect in test [5] (EC50).

B10: DVD489 (bispecific antibody, human IgG1, kappa, L234A L235A)
heavy: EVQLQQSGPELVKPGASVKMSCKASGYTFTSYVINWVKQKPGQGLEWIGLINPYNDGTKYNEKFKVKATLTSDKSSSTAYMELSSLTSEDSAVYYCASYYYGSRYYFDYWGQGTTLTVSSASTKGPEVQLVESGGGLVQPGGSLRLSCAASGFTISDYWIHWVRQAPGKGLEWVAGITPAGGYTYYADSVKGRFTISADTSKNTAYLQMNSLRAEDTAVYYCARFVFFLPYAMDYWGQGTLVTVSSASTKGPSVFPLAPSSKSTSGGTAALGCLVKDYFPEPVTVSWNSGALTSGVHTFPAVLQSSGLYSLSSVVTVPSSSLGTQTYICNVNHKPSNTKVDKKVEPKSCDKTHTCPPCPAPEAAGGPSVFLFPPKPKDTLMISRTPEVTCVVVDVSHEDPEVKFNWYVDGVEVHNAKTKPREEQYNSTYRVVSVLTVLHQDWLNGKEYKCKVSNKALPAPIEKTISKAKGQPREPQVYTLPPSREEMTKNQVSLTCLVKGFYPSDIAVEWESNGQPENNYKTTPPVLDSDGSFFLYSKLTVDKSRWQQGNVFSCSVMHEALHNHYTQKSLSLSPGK
light: DIQMTQSSSYLSVSLGGRVTITCKASDHINNWLAWYQQKPGNAPRLLISGATSLETGVPSRFSGSGSGKDYTLSITSLQTEDVATYYCQQYWSIPLTFGAGTKLELKRTVAAPDIQMTQSPSSLSASVGDRVTITCRASQDVSTAVAWYQQKPGKAPKLLIYSASFLYSGVPSRFSGSGSGTDFTLTISSLQPEDFATYYCQQSYTTPPTFGQGTKVEIKRTVAAPSVFIFPPSDEQLKSGTASVVCLLNNFYPREAKVQWKVDNALQSGNSQESVTEQDSKDSTYSLSSTLTLSKADYEKHKVYACEVTHQGLSSPVTKSFNRGEC
notes: DVD-Ig; N-term; AB072 (DLL4), C-term; AB070 (VEGF); HC linker short, LC linker short; also called DVD-Ig DVD489; DVD489H/DVD489L
On to B10, for which the concentration giving a half-maximal response (EC50) in test [1] came to 181 nM.

B11: DVD501 (bispecific antibody, human IgG1, kappa)
heavy: not shown
light: B10 light
notes: DVD-Ig; N-term; AB072 (DLL4), C-term; AB070 (VEGF); HC linker long, LC linker short; also called DVD-Ig DVD501; DVD501H/DVD501L
Turning to B11, the EC50 in test [2] was determined as 45.2 nM. This lies in the double-digit nanomolar range.

B12: DVD497 (bispecific antibody, human IgG1, kappa)
heavy: not shown
light: DIQMTQSSSYLSVSLGGRVTITCKASDHINNWLAWYQQKPGNAPRLLISGATSLETGVPSRFSGSGSGKDYTLSITSLQTEDVATYYCQQYWSIPLTFGAGTKLELKRTVAAPSVFIFPPDIQMTQSPSSLSASVGDRVTITCRASQVIRRSLAWYQQKPGKAPKLLIYAASNLASGVPSRFSGSGSGTDFTLTISSLQPEDFATYYCQQSNTSPLTFGQGTKVEIKRTVAAPSVFIFPPSDEQLKSGTASVVCLLNNFYPREAKVQWKVDNALQSGNSQESVTEQDSKDSTYSLSSTLTLSKADYEKHKVYACEVTHQGLSSPVTKSFNRGEC
notes: DVD-Ig; N-term; AB072 (DLL4), C-term; AB071 (VEGF); HC linker long, LC linker long; also called DVD-Ig DVD497; DVD497H/DVD497L
On to B12, for which, in test [5], it took 858 nM to reach a half-maximal effect (EC50). This lies in the sub-micromolar range.

B13: DVD514 (bispecific antibody, human IgG1, lambda)
heavy: not shown
light: DIQMTQSPSSLSASVGDRVTITCRASQDVSTAVAWYQQKPGKAPKLLIYSASFLYSGVPSRFSGSGSGTDFTLTISSLQPEDFATYYCQQSYTTPPTFGQGTKVEIKRTVAAPQAVVTQESALTTSPGETVTLTCRSSTGAVTTSNYANWVQEKPDHLFTGLIGGTNNRAPGVPARFSGSLIGDKAALTITGAQTEDEAIYFCALWYSNHWVFGGGTKLTVLGQPKAAPSVTLFPPSSEELQANKATLVCLISDFYPGAVTVAWKADSSPVKAGVETTTPSKQSNNKYAASSYLSLTPEQWKSHRSYSCQVTHEGSTVEKTVAPTECS
notes: DVD-Ig; N-term; AB070 (VEGF), C-term; AB073 (DLL4); HC linker short, LC linker short; also called DVD-Ig DVD514; DVD514H/DVD514L
In the case of B13, a half-maximal effect in test [3] (EC50) was put at 67.4 nM.

B14: DVD526 (bispecific antibody, human IgG1, lambda)
heavy: not shown
light: B13 light
notes: DVD-Ig; N-term; AB070 (VEGF), C-term; AB073 (DLL4); HC linker long, LC linker short; also called DVD-Ig DVD526; DVD526H/DVD526L
In test [4], B14 had a concentration for a half-maximal effect (EC50) of 96.2 nM.
